# Source: patent US20160274129
# Substitutions are numbered along the chain they refer to. Values joined by “and” are separate entries in the source; they are usually repeats but may differ in a detail not shown here. Identical values can stand only once.
# T1: α-fructosyl-valyl-histidyl-leucyl-threonyl-proryl-glutamyl-glutamyl-lysine
# T1 chain: VHLTPEEK
# T2: α-fructosyl-valyl-histidyl-leucine
# T2 chain: VHL
# T3: α-fructosyl-valyl-histidyl-leucyl-threonyl-proryl-glutamyl-glutamyl-lysyl-seryl-alanyl-valyl-threonyl-alanyl-leucyl-tryptophyl-glycine
# T3 chain: VHLTPEEKSAVTALWG
# T4: α-fructosyl-valyl-histidyl-leucyl-threonine
# T4 chain: VHLT
# T5: α-fructosyl-valyl-histidyl-leucyl-threonyl-proryl-glutamic acid
# T5 chain: VHLTPE
# T6: α-fructosyl-valyl-histidine
# T6 chain: VH
# T7: α-fructosyl-valyl-histidyl-leucyl-threonyl-proline
# T7 chain: VHLTP
# B1: CFP-T7 (protein)
# chain: MTSNRADTRVIVVGGGGTIGSSTALHLVRSGYAPANITVLDTFEIPSAQSAGHDLNKIMGIRLRNKVDLQMSLEARQMWKEDELFQPFFHNTGRMDCEHTPEGIEDLKKQYQALHDAGAGLEKTHAWLDNEDEILSKMPLLQRDQIQGWKAIWSQDGGWLAAAKAINAIGQFLKERGVKFGFGGAGSFKQPLFDDEGTTCIGVETADGTKYYADKVVLAAGAWSPTLVDLEDQCCSKAWVYAHIQLTPEEAAEYKGVPVVYNGEFGFFFEPDEFGVIKVCDEFPGFSRFKEHQPYGAPSPKRISVPRSHAKHPTDTYPDASEVSIKKAIATFLPRFQDKELFNRALCWCTDTADAALLMCEHPKWKNFILATGDSGHSFKILPNVGKYVVELIEGRLPEEMAYQWRWRPGGDALKSRRAAPPKDLADMPGWKHDPKL
# B2: CFP-T7-H35 (protein)
# chain: B1 chain with R62D, L63H, E102K, D106K, Q110L, A113K, A355S
# B3: CFP-T7-H21 (protein)
# chain: B1 chain with R62D, D106K, Q110L, A113R
# B4: CFP-T7-H11 (protein)
# chain: B1 chain with R62D, D106K, Q110L
# B5: CFP-T7-H14 (protein)
# chain: B1 chain with R62D, Q110L, A113R
# B6: CFP-T7-H20 (protein)
# chain: B1 chain with R62D, D106K, Q110L, A113K
# B7: CFP-T7-H25 (protein)
# chain: B1 chain with R62D, L63D, D106K, Q110L, A113K
# B8: CFP-T7-H27 (protein)
# chain: B1 chain with R62D, L63K, D106K, Q110L, A113K
# B9: CFP-T7-H29 (protein)
# chain: B1 chain with R62D, L63H, D106K, Q110L, A113K, A419K
# B10: CFP-T7-H9 (protein)
# chain: B1 chain with R62D, R64H, Q110L
# B11: CFP-T7-H28 (protein)
# chain: B1 chain with R62D, L63H, E102K, D106K, Q110L, A113K
# B12: CFP-T7-H24 (protein)
# chain: B1 chain with R62D, L63A, D106K, Q110L, A113K
# B13: CFP-T7-62D (protein)
# chain: B1 chain with R62D
# B14: CFP-T7-H10 (protein)
# chain: B1 chain with R62D, D106A, Q110L
# B15: CFP-T7-H26 (protein)
# chain: B1 chain with R62D, L63H, D106K, Q110L, A113K
# B16: CFP-T7-H13 (protein)
# chain: B1 chain with R62D, Q110L, A113K
# B17: CFP-T7-H1 (protein)
# chain: B1 chain with R62A
# B18: CFP-T7-H12 (protein)
# chain: B1 chain with R62D, D106R, Q110L
# B19: FAOAo2 (protein)
# chain: MTVTKSSSILIIGAGTWGASTALHLGRRGYTNVTVLDPYTVPSAISAGNDVNKIISSGQYSNKKDEIEVNEILAEEAFKGWTTDPLFKPYYHDTGVVMSACSSAGLDRLGIRVRPEEEPDVSEVTKPEHFRQLAPAVLKGNFPGWRGYHIRSNAGWAHARNALVAAIREAEKLGVKFVTGTQGRVITLIFENNDVKGAVTADGKIWRAEQTVLCAGANAAQFLDFKDQLRPTAWTLAHIRLKPEERALYKNLPVIFNIEKGFFFEPDEERGEIKICDEHPGYTNMVKSADGHLTSLPFEKTQIPKESEARVRALLSETMPQLADRPFSFARVCWCADTANREFIIDRHPEHPSLVLGCGASGRGFKYLPSIGNLIVDAIEDKVPEKVHKLTRWSPDIAVDRKWRDTLGRFGGPNRVMDFHDVKEWTNVQNKDTAKL
# Biological target: T1, α-fructosyl-valyl-histidyl-leucyl-threon …
row,Protein,"Specific activity (U/mg), 1 mM αF8P, purified enzyme [U/mg]"
1,B1,0
2,B2,1.59

# Biological target: T2, α-fructosyl-valyl-histidyl-leucine
row,Protein,"Specific activity (U/mg), 1 mM αF3P, purified enzyme [U/mg]"
1,B1,0
2,B2,1.24

# Biological target: T3, α-fructosyl-valyl-histidyl-leucyl-threon …
row,Protein,"Specific activity (U/mg), 1 mM αF16P, purified enzyme [U/mg]"
1,B1,0
2,B2,0.247

# Biological target: T4, α-fructosyl-valyl-histidyl-leucyl-threon …
row,Protein,"Specific activity (U/mg), 1 mM αF4P, purified enzyme [U/mg]"
1,B1,0
2,B2,0.352

# Biological target: T5, α-fructosyl-valyl-histidyl-leucyl-threon …
Protein,"Specific activity (U/mg), 1 mM αF6P, purified enzyme [U/mg]",αF6P oxidation activity (crude enzyme; αFVH oxidation activity = 100) (relative (αFVH = 100)),αF6P/αFV,αF6P/αFVH,αF6P oxidation activity ratio (crude enzyme; CFP-T7-H6 = 100) (relative (CFP-T7-H6 = 100)),αF6P oxidation activity ratio (crude enzyme; CFP-T7-H20 = 100) (relative (CFP-T7-H20 = 100)),αF6P oxidation activity ratio (crude enzyme; CFP-T7-H26 = 100) (relative (CFP-T7-H26 = 100)),fold of specific activity on αF6P against PnFX (Amadoriase 26/Comparative Example 3),fold of specific activity on αF6P against FAOAo2 (Amadoriase 25/Comparative Example 2),αF6P oxidation activity ratio (crude enzyme; CFP-T7-H28 = 100) (relative (CFP-T7-H28 = 100))
B3,0.795,20.8,0.0377 and 0.0372,0.196 and 0.208,–,–,–,–,–,–
B4,–,12.5,0.0245,0.125,951,–,–,–,–,–
B1,0,0,0,0,–,–,–,–,–,–
B5,–,4.22,0.00519,0.0422,183,–,–,–,–,–
B6,0.85,20.5,0.0377 and 0.0389,0.205 and 0.198,–,–,–,–,–,–
B7,–,–,–,–,–,24,–,–,–,–
B8,–,–,–,–,–,7,–,–,–,–
B9,–,111,0.111,1.11,–,–,102,–,–,–
B10,–,–,–,–,44,–,–,–,–,–
B11,–,134,0.124,1.34,–,–,117,–,–,–
B12,–,86.7,0.0461,0.867,–,123,–,–,–,–
B13,0.018,–,0.00113,0.00132,–,–,–,"2 times (Amadoriase 26/Comparative Example 3) to 1,940 times (Amadoriase 25/Comparative Example 2)",–,–
B14,–,–,–,–,301,–,–,–,–,–
B15,–,84.3,0.0773,0.843,–,142,–,–,–,–
B16,–,4.33,0.00579,0.0433,207,–,–,–,–,–
B17,–,0.0316,0.000222,0.000316,–,–,–,–,–,–
B2,4.27,–,0.323,2.25,–,–,–,–,"2 times (Amadoriase 26/Comparative Example 3) to 1,940 times (Amadoriase 25/Comparative Example 2)",206
B18,–,11.6,0.0165,0.116,636,–,–,–,–,–
B19,0.0022,–,–,–,–,–,–,–,–,–

# Biological target: T6, α-fructosyl-valyl-histidine
row,Protein,"Specific activity (U/mg), 1 mM αFVH, purified enzyme [U/mg]"
1,B3,4.05
2,B1,16.5
3,B6,4.28
4,B13,1.62
5,B2,1.9

# Biological target: T7, α-fructosyl-valyl-histidyl-leucyl-threon …
row,Protein,"Specific activity (U/mg), 1 mM αF5P, purified enzyme [U/mg]"
1,B1,0
2,B2,2.15
